Laboratory results from patent US12077763B2, “RNA-based control of powdery mildew” (Greenlight Biosciences, Inc., priority 2021, dated 2024).

Tested on: E. necator
Test: Leaf disc assay, dry inoculum (settling tower), decrease in disease severity / hyphal growth (Example 2)
Settings: decrease in disease severity (hyphal growth) relative to untreated control, value ± SE; for % decrease =/− SE TP1: time point 1 (untreated control hyphal growth ≥50%); for % decrease =/− SE TP2: time point 2

| Molecule | % decrease =/− SE TP1 | % decrease =/− SE TP2 |
| --- | --- | --- |
| GS2674 (nucleic acid) sense: UUGAGAAAUUAUUUUCUCUUAUAGCGAAUUUGAUUGAGUAUUUUAUGUGAUAUUCACGUUGUUGGACCCUUAUAGAUCUGGGAUUUAGGGUCUUAGAAGACUCGUCUUAAAGCUUGCCCCAACGUAUGAAGUAUUAAAUACGUUACUUUUGAUAUGAAUAUAUUUUUUAUAUACACGAAUUAAUUUAAUCGAAGAGACCAAAGCCCAUAUCUUCAUCAGACUCUUCUUCUUUUUCUUCUU antisense: AAGAAGAAAAAGAAGAAGAGUCUGAUGAAGAUAUGGGCUUUGGUCUCUUCGAUUAAAUUAAUUCGUGUAUAUAAAAAAUAUAUUCAUAUCAAAAGUAACGUAUUUAAUACUUCAUACGUUGGGGCAAGCUUUAAGACGAGUCUUCUAAGACCCUAAAUCCCAGAUCUAUAAGGGUCCAACAACGUGAAUAUCACAUAAAAUACUCAAUCAAAUUCGCUAUAAGAGAAAAUAAUUUCUCAA | 17 ± 4% | 5 ± 6% |
| GS2655 (nucleic acid) sense: UGCCAUUCGCGUAUUUUUCUAUUCGAAGACACUCAGUCCUUCAGAGAUUAUUCCAGAAUUGUAUCCUCAAUUACAAUCUUAUUUUUACACAAUACCUCUUUCCCCUAAAUAAAGUACUACAAUGUCAAAUUCCGAAUUAGCAGUUUCGUAUGCUGCCCUUAUCCUCGCAGAUGACGGGGUUGACGUCACAGCAGAUAAGCUACAAUCAUUAAUCAAGGCUGCUGGUAUUGAUGAUGUUGAGCCAAUUUGGACUACUUUAUUUGCCAAGGCUCUCGAUGGCAAAGAUGUGAAAGAUAUGCUCCUGAAUGUAG antisense: CUACAUUCAGGAGCAUAUCUUUCACAUCUUUGCCAUCGAGAGCCUUGGCAAAUAAAGUAGUCCAAAUUGGCUCAACAUCAUCAAUACCAGCAGCCUUGAUUAAUGAUUGUAGCUUAUCUGCUGUGACGUCAACCCCGUCAUCUGCGAGGAUAAGGGCAGCAUACGAAACUGCUAAUUCGGAAUUUGACAUUGUAGUACUUUAUUUAGGGGAAAGAGGUAUUGUGUAAAAAUAAGAUUGUAAUUGAGGAUACAAUUCUGGAAUAAUCUCUGAAGGACUGAGUGUCUUCGAAUAGAAAAAUACGCGAAUGGCA | 26 ± 9% | 9 ± 9% |
| GS2668 (nucleic acid) sense: UUCCUAGUCAAACGUGCAUCUAGUGGAGGUGUACAAUUUUCUCGUGAUCCCCUAAACUUAACAAAUGUGCAUUCUCGCAAAUAUGCCGGAUUUGUUAACGAUAAGGCUGUCGGAAUUCUUCCCAUUGAAGGUGGUAAAGGAGGUAUUACUUUGAUCACCAAAAAAACUAAAUUUACCCAAAAACCUUCUAGCGCCAUAUACACAACAGUUUUUGGUGGUAAUAAAACUUCAAGACGGACAUAUAAGGGGGUUGUCAAUACUGUUGUCAAAUCAAGAUAUCGAUCUGAUCUUCGUGCUGAAGCUGUUGCUCGUGCGUCUGCUAUUCGGUACUCGCAAAAACCAAAGGGUGAUCUUCCUAAGAAGAAAUUGCGUGGAUCAAAAGCUAAAAAGG antisense: CCUUUUUAGCUUUUGAUCCACGCAAUUUCUUCUUAGGAAGAUCACCCUUUGGUUUUUGCGAGUACCGAAUAGCAGACGCACGAGCAACAGCUUCAGCACGAAGAUCAGAUCGAUAUCUUGAUUUGACAACAGUAUUGACAACCCCCUUAUAUGUCCGUCUUGAAGUUUUAUUACCACCAAAAACUGUUGUGUAUAUGGCGCUAGAAGGUUUUUGGGUAAAUUUAGUUUUUUUGGUGAUCAAAGUAAUACCUCCUUUACCACCUUCAAUGGGAAGAAUUCCGACAGCCUUAUCGUUAACAAAUCCGGCAUAUUUGCGAGAAUGCACAUUUGUUAAGUUUAGGGGAUCACGAGAAAAUUGUACACCUCCACUAGAUGCACGUUUGACUAGGAA | 46 ± 3% | 38 ± 4% |
| GS2666 (nucleic acid) sense: UUCGGCAUAUCAACGUAAAAAAAAAAUAAAUCGACACAAAACAGCUCAAUACCGUAGUUUAUCACCAUGCUUACAAUUACGUAAACGGAGGUCUGCAAAGAGCCUUAAGUCUUUGGAAAUAUCAUGCAGUAGUGGUAUUGAAAAAGGAACCACUAGCUUCGUAAACUAUACCCCAGAAGAUUCCCAGAAGAUUUUAAAUGGAGUUGCUCCGUCUGGGAGUAACAAGACCAAAGCUCGAAGGGAGAAAGAGGCCUUGGAAAAACGCCAAAAGUUAU antisense: AUAACUUUUGGCGUUUUUCCAAGGCCUCUUUCUCCCUUCGAGCUUUGGUCUUGUUACUCCCAGACGGAGCAACUCCAUUUAAAAUCUUCUGGGAAUCUUCUGGGGUAUAGUUUACGAAGCUAGUGGUUCCUUUUUCAAUACCACUACUGCAUGAUAUUUCCAAAGACUUAAGGCUCUUUGCAGACCUCCGUUUACGUAAUUGUAAGCAUGGUGAUAAACUACGGUAUUGAGCUGUUUUGUGUCGAUUUAUUUUUUUUUUACGUUGAUAUGCCGAA | 14 ± 7% | – |
| ES46: dsRNA trigger SEQ ID NO 110; gene target Hypotethical effector (nucleic acid) DNA: TTGGAAGAACCGCCAGAAAACCCAATCAGATACCGATCTCTACTCGGATCATCATTTCACTTCGCAACATGCAATTAACGGTTATGTACCTTCTATAGGCTTTGAATCCGATGGTTATGGGATTAGTAAGAGATCTAATCGTAAAACTGTTCATGGATATTACTGTGGGAGCTCAAAACATGAGCAGCATTTTTATGAGCAGGACTATATTAAAATATATACATGTCAAACATAATGCAAACTTAATTCCATATAGTTAACTGAAATGGTCATTTTTTCACAGCTTTAACTCAATTCCTTTTGAAGAGTGATAACTTTTACTTGCAATTCCTAATTAAAATAAGAGCACAAGCCTTAATTTTTGGATCTAAAATATCAATGCCAACCCCTTGTGCACTGTTGGTAGTGAAAATCTTCGTTATTTGTGACAACATCCACAATCTCGCACTGCGTATTGATA | 6 ± 0% | 5 ± 0% |
| GS2384 (nucleic acid) sense: AUGGGAUUUACACCGAUCAACUUUACAUUUUACUGGGCACCUCUACCUUGGAAUCGUGCUCGUGAUCAUGCCCAAAGAACUGUUGCUAGGACUUAUAUGAAUAUAAUCCAAGCUCGUAGAGAAGAGAAAAGAAGCGGUGAGAAUAAGCAUGAUAUAAUGUGGGAGUUGAUGCGUUCCACUUAUAAAGACGGGACUCCGGU antisense: ACCGGAGUCCCGUCUUUAUAAGUGGAACGCAUCAACUCCCACAUUAUAUCAUGCUUAUUCUCACCGCUUCUUUUCUCUUCUCUACGAGCUUGGAUUAUAUUCAUAUAAGUCCUAGCAACAGUUCUUUGGGCAUGAUCACGAGCACGAUUCCAAGGUAGAGGUGCCCAGUAAAAUGUAAAGUUGAUCGGUGUAAAUCCCAU | 20 ± 0% | 8 ± 0% |
| GS2660 (nucleic acid) sense: GUCGUAAUGAUCUUGGCCAAUAAUUCGAGGGUCAAGCAUUCGAGAUUUAGACUCAAGGGGAUCUACCGCUGGAUAGAUACCUAAUUCUGAAAUACCACGUGAUAAUACAGUAGUUGCAUCUAAAUGAGCAAACGUUGUUGCGGGUGCUGGAUCCGUCAGAUCAUCAGCUGGCACGUAAACAGCUUGCACUGAAGUGAUUGAGCCUUUGGUAGUUGUUGUAAUUCGCUCUUGCAUAAGACCCAUAUCUACUGCAAGUGUAGGUUGAUAACCAACUGCAGAGGGAAUACGUCCGAGAAGAGCAGAGACUUCGGAGCCGGCCUGAGUGAAACGAAAAAUAUUAUCAAUGAAAAGUAAUACAUCUUGUCCUUCUUCAUCACGGAAAUACUCAGCAAUAGUUA antisense: UAACUAUUGCUGAGUAUUUCCGUGAUGAAGAAGGACAAGAUGUAUUACUUUUCAUUGAUAAUAUUUUUCGUUUCACUCAGGCCGGCUCCGAAGUCUCUGCUCUUCUCGGACGUAUUCCCUCUGCAGUUGGUUAUCAACCUACACUUGCAGUAGAUAUGGGUCUUAUGCAAGAGCGAAUUACAACAACUACCAAAGGCUCAAUCACUUCAGUGCAAGCUGUUUACGUGCCAGCUGAUGAUCUGACGGAUCCAGCACCCGCAACAACGUUUGCUCAUUUAGAUGCAACUACUGUAUUAUCACGUGGUAUUUCAGAAUUAGGUAUCUAUCCAGCGGUAGAUCCCCUUGAGUCUAAAUCUCGAAUGCUUGACCCUCGAAUUAUUGGCCAAGAUCAUUACGAC | – | 24 ± 8% |
| GS2656 (nucleic acid) sense: GCCCGCUUCCUCAGCUAUUCUUGCCUGUUUUGCGUUGACCACAUCCAUAAUUACGCCACCCUUCAACAUGCGAGCCAGGCCGGUUUUGACCCCAAAAUUCUUUUGUCCCACAGGCUUUGAGGUGCCUUUAUUGAUUCCAUUAUUAACGCCACCAUCAGCAGAGACAGGAAUAGGGAUUUCAGUGGCCAUCUUGCAAUUAUCUCAUAAAUAGUGGUAUUAGUUAAGCGCCCGAAGGUUCUUGUCAAAUUCUUCUUGCAAAUAUUAGUAUCAAGAGUUUGCUGAAGAUAUAAAACUAAGAAACGAAUUGUAAUUAACAAAUGGAUUGUAAAAUUUCUCAAAAUGACCGCCUGGUCGAUAUGACUAUGACGUUUAGAGCCAGGAAGUGUUGCAGGAAAAA antisense: UUUUUCCUGCAACACUUCCUGGCUCUAAACGUCAUAGUCAUAUCGACCAGGCGGUCAUUUUGAGAAAUUUUACAAUCCAUUUGUUAAUUACAAUUCGUUUCUUAGUUUUAUAUCUUCAGCAAACUCUUGAUACUAAUAUUUGCAAGAAGAAUUUGACAAGAACCUUCGGGCGCUUAACUAAUACCACUAUUUAUGAGAUAAUUGCAAGAUGGCCACUGAAAUCCCUAUUCCUGUCUCUGCUGAUGGUGGCGUUAAUAAUGGAAUCAAUAAAGGCACCUCAAAGCCUGUGGGACAAAAGAAUUUUGGGGUCAAAACCGGCCUGGCUCGCAUGUUGAAGGGUGGCGUAAUUAUGGAUGUGGUCAACGCAAAACAGGCAAGAAUAGCUGAGGAAGCGGGC | 34 ± 5% | 46 ± 6% |
| GS2382 (nucleic acid) sense: AAAAGUUAUGGCGGAAAUCACUAUAUAUACUGCUUCACAUGCCUUACAAGGAGAAGAGGUCCGUGAGAAUUUUGACUCAUCUUUUGCCGCUCUUUAUCAUGAUCUUGAUAUGGGAUUUACACCGAUCAACUUUACAUUUUACUGGGCACCUCUACCUUGGAAUCGUGCUCGUGAUCAUGCCCAAAGAACUGUUGCUAGGA antisense: UCCUAGCAACAGUUCUUUGGGCAUGAUCACGAGCACGAUUCCAAGGUAGAGGUGCCCAGUAAAAUGUAAAGUUGAUCGGUGUAAAUCCCAUAUCAAGAUCAUGAUAAAGAGCGGCAAAAGAUGAGUCAAAAUUCUCACGGACCUCUUCUCCUUGUAAGGCAUGUGAAGCAGUAUAUAUAGUGAUUUCCGCCAUAACUUUU | 17 ± 0% | 4 ± 0% |
